This is an account of results in patent publication US20150099269, “Hybridization- Independent Labeling Of Repetitive DNA Sequence In Human Chromsomes” (University of Massachusetts, published 2015).

The target in one data set is T1, TALE-TelR15 (artificial).
T1 chain: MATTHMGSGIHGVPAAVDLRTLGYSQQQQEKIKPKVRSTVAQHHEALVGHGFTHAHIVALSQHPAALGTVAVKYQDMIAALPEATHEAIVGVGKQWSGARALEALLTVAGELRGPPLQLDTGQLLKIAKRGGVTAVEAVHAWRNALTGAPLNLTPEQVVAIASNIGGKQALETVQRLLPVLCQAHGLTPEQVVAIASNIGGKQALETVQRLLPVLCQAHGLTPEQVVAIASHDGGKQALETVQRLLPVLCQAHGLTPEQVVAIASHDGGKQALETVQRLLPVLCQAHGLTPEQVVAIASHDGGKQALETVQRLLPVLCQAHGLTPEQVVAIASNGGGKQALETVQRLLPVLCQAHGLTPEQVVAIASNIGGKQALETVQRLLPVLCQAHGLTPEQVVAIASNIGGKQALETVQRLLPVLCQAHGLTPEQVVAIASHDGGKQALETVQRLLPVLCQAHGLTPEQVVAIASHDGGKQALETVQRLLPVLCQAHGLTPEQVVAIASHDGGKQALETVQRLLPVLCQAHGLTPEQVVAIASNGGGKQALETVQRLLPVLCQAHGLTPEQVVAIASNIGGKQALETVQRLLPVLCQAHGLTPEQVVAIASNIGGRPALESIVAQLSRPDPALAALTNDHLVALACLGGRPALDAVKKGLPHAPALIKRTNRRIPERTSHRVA
Nature of the data set: methanol-fixed, 2N HCl treated cells, room temperature; signal correlates with telomere length (HeLa 1.3 higher than HeLa S3). The settings on record: tags: fused sfGFP, mTagBFP2, mTFP1, YPet or mCherry (pT7CFE1-His vector). Here is the method: Cells grown on coverslips were fixed in ice-cold methanol for 10 min at −20° C. All subsequent steps were carried out at room temperature. The fixed cells were incubated with 2N HCl for 5 min and then washed twice with PBS for 5 min each and then incubated with a given TALEColor probe as a 1:10 dilution from the coupled in vitro transcription-translation reactions mixtures for 30 min. The cells were then washed once with PBS for 5 min. Coverslips were mounted in Prolong Antifade (Molecular Probes, Eugene, Oreg.), and images were captured with the fluorescence microscopy system described above.

The target in data set [1] is T2, TALE-TelR15 Green-Lysine labelled, no FP (artificial).
T2 chain: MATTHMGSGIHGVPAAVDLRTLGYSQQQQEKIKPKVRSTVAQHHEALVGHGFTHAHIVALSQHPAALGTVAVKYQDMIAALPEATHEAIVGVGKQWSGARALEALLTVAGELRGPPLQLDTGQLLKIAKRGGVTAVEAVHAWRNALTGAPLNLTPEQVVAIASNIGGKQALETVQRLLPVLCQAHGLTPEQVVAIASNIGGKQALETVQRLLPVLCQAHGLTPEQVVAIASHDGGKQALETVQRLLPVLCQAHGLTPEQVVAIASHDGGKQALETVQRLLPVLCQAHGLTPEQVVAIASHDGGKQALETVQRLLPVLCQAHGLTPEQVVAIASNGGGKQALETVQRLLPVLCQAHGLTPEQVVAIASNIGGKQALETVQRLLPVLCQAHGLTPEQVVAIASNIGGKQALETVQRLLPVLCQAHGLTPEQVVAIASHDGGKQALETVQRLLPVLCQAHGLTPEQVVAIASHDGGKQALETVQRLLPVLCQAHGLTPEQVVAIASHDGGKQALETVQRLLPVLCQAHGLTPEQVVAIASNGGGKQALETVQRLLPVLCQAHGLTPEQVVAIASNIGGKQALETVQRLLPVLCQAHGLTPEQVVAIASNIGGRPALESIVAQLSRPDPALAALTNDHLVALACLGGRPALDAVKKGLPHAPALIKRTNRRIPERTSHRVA
Kind of data set: fixed U2OS cells, compared with the mCherry fusion. The settings on record: tags: internal lysines labelled with green dye (Promega), pET30a vector.

B1: TelR15 target (dsDNA)
DNA 1: TAACCCTAACCCTAA
DNA 2: TTAGGGTTAGGGTTA
In the case of B1, the binding result (with TALE-TelR15; in data set [1]) was “binds” throughout.
